Measurements taken from US20160311881A1 (Eli Lilly, published 2016).
Non-standard residues stand in square brackets, D forms with d. No end group written: not given here. Aib = CC(C)(N)C(=O)O

How the values were obtained:
[1] = molecular target: T1, mouse glucagon receptor (mGR) (mouse, UniProt Q61606 27-485); assay: SPA competition against 125I-labelled glucagon on mGR membranes; Cheng-Prusoff
T1 construct: whole, on cells; The assay used crude plasma membranes of the expressing 293HEK cells

[2] = molecular target: T2, human glucagon-like peptide 1 receptor (hGLP-1R) (human, UniProt P43220 24-463); assay: SPA competition against 125I-labelled GLP-1 amide on hGLP-1R membranes; Cheng-Prusoff
T2 construct: whole, on cells; The assay used crude plasma membranes of the expressing 293HEK cells

[3] = molecular target: T3, human glucagon receptor (hGR) (human, UniProt P47871 26-477); assay: SPA competition against 125I-labelled glucagon on hGR membranes; Cheng-Prusoff
T3 construct: whole, on cells; The cAMP assay used whole cells of the same line
T3 sequence (P47871 26-477): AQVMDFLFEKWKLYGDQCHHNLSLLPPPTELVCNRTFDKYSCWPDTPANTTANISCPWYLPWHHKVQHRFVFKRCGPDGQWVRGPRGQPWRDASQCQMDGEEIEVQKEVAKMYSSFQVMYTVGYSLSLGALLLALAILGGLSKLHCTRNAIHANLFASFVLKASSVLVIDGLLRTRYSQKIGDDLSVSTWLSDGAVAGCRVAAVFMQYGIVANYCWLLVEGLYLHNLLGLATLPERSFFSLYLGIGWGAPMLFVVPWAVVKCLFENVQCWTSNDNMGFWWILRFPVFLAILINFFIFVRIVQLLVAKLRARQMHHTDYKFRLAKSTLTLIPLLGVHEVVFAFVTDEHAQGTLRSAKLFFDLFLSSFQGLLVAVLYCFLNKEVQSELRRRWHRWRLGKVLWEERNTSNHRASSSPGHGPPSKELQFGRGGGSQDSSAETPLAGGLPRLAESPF
Experimental: Plates are sealed, mixed end over end, and read with a MicroBeta® scintillation counter after 12 hours of settling time at room temperature.

[4] = molecular target: T3, human glucagon receptor (hGR); assay: cell-based or functional assay
[5] = molecular target: T4, human glucose-dependent insulinotropic peptide receptor (GIP-R) (human, UniProt P48546 22-466); assay: SPA competition against 125I-labelled GIP on human GIP-R membranes; Cheng-Prusoff
T4 construct: whole, on cells; The assay used crude plasma membranes of the expressing CHO-S cells; also called human GIP-R; hGIP-R
T4 sequence (looked up): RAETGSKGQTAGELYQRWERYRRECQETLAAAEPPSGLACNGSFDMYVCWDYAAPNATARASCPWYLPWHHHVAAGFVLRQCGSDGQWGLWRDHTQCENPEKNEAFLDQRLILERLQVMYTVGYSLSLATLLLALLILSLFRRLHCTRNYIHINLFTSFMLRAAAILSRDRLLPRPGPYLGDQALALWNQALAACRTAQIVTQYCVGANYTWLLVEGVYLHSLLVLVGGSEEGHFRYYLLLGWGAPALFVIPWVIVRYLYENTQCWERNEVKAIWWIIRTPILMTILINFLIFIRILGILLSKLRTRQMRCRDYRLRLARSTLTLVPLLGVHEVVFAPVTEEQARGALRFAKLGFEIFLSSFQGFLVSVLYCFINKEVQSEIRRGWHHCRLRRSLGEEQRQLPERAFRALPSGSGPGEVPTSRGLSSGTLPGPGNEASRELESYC

T1 sequence (Q61606 27-485): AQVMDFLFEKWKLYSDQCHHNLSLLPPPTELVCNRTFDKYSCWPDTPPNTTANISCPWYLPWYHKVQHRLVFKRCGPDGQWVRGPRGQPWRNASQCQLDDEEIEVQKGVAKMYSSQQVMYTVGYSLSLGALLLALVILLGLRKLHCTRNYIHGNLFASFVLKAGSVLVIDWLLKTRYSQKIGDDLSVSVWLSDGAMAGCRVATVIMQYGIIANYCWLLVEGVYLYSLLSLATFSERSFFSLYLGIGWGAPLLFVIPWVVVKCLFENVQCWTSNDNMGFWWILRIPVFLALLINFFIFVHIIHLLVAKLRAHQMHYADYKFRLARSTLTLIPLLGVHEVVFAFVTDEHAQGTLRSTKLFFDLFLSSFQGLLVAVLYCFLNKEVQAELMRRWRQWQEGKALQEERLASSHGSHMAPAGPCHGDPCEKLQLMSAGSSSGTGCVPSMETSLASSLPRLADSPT

- Ki [1]: 0.494 nM
- Ki [2]: 1220 nM
- Ki [3]: 0.397 nM
- hGR stimulated cAMP functional assay (HTRF), relative EC50 [4]: 0.0356 nM
- Ki [5]: 1050 nM
B1: compound of SEQ ID NO: 2 (peptide)
peptide: HAQGTFLSDYSKYLD[Aib]KKAQEFVEWLLKTGPSSGAPPKSK-NH2
modifications: N-terminus assumed
SMILES: CC(C)C[C@H](NC(=O)[C@H](Cc1c[nH]c2ccccc12)NC(=O)[C@H](CCC(=O)O)NC(=O)[C@@H](NC(=O)[C@H](Cc1ccccc1)NC(=O)[C@H](CCC(=O)O)NC(=O)[C@H](CCC(N)=O)NC(=O)[C@H](C)NC(=O)[C@H](CCCCN)NC(=O)[C@H](CCCCN)NC(=O)C(C)(C)NC(=O)[C@H](CC(=O)O)NC(=O)[C@H](CC(C)C)NC(=O)[C@H](Cc1ccc(O)cc1)NC(=O)[C@H](CCCCN)NC(=O)[C@H](CO)NC(=O)[C@H](Cc1ccc(O)cc1)NC(=O)[C@H](CC(=O)O)NC(=O)[C@H](CO)NC(=O)[C@H](CC(C)C)NC(=O)[C@H](Cc1ccccc1)NC(=O)[C@@H](NC(=O)CNC(=O)[C@H](CCC(N)=O)NC(=O)[C@H](C)NC(=O)[C@@H](N)Cc1c[nH]cn1)[C@@H](C)O)C(C)C)C(=O)N[C@@H](CC(C)C)C(=O)N[C@@H](CCCCN)C(=O)N[C@H](C(=O)NCC(=O)N1CCC[C@H]1C(=O)N[C@@H](CO)C(=O)N[C@@H](CO)C(=O)NCC(=O)N[C@@H](C)C(=O)N1CCC[C@H]1C(=O)N1CCC[C@H]1C(=O)N[C@@H](CCCCN)C(=O)N[C@@H](CO)C(=O)N[C@@H](CCCCN)C(N)=O)[C@@H](C)O
notes: Synthetic 40-residue glucagon analog made by solid-phase synthesis on Rink amide resin
